Assay [1] addresses T1, CD47 (human, UniProt Q08722 19-323). Kind of assay: cell-based or functional assay.
In assay [2] the target is T2, CD33 (human, UniProt P20138 18-364).
T2 construct: whole, on cells; Species is stated as human for the transfected lines; also called human CD33; CHO.exCD33
Kind of assay: flow cytometry titration on MOLM-13 cells (CD33+ CD47+), KD as an avidity value. In general terms: Flow cytometry measures light scatter and fluorescence of single cells or particles in a stream.

For assay [3], the target named is T1, CD47. Nature of the assay: flow cytometry titration on CHO.exCD47 cells, anti-HIS ALEXA-488 detection, n=3.
Assay [4] concerns the target T2, CD33. Kind of assay: column 'KD MOLM-13': flow cytometry on MOLM-13 cells (CD33+ CD47+), KD as an avidity value.
Assay [5] concerns the target T2, CD33. Nature of the assay: calibrated flow cytometry titration on MOLM-13 cells, KD as an avidity value. As for the experimental part: (§1) CD33 equilibrium binding constants (KD, as an avidity measurement) of the licMABs and mAb were determined by calibrated flow cytometry analyses as previously described (Benedict et al., 1997; J. Immunol. Methods; 201(2); 223-231). Briefly, MOLM-13 cells were incubated with licMABs or mAb in concentrations ranging from 0.01 to 15 μg/ml and stained with a FITC antiHuman IgG Fc (clone HP6017, BioLegend) secondary antibody by flow cytometry. The instrument was calibrated with 3.0-3.4 μm Rainbow Calibration particles of 8 peaks (BioLegend), the maximum MFI value was set to 100% and all data points were normalized accordingly. The assay was performed in quadruplicates and the values were analyzed by non-linear regression using a one-site specific binding model.

Assay [6] concerns the target T2, CD33. Nature of the assay: column 'KD MOLM-13': calibrated flow cytometry on MOLM-13 cells, KD as an avidity value. As for the experimental part: as §1
The target of assay [7] is T2, CD33. Kind of assay: calibrated flow cytometry titration on MOLM-13 cells, KD as an avidity value; panel 'KD determination of Fc-engineered licMABs'. As for the experimental part: as §1

The results in this text go back to patent US20180311348A1 (LUDWIG MAXIMILIANS UNIVERSIT T M NCHEN, published 2018).

T2 sequence (P20138 18-364): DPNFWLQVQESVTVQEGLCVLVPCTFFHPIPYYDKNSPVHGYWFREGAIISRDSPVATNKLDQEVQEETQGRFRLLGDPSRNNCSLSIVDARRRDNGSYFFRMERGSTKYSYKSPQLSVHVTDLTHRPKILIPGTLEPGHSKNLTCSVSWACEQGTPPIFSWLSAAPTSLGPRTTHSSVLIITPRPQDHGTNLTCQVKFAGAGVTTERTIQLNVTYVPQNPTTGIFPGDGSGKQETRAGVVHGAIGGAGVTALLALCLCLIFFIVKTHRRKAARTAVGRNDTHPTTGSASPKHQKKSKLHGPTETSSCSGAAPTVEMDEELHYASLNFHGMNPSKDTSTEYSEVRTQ

B1: SirpIg-SirpIg-anti-CD16-anti-CD33 liCAD (other)
chain: EEELQVIQPDKSVLVAAGETATLRCTATSLIPVGPIQWFRGAGPGRELIYNQKEGHFPRVTTVSDLTKRNNMDFSIRIGNITPADAGTYYCVKFRKGSPDDVEFKSGAGTELSVRAKPSGGGGSGGGGSGGGGSGGGGSEEELQVIQPDKSVLVAAGETATLRCTATSLIPVGPIQWFRGAGPGRELIYNQKEGHFPRVTTVSDLTKRNNMDFSIRIGNITPADAGTYYCVKFRKGSPDDVEFKSGAGTELSVRAKPSGGGGSGGGGSGGGGSGGGGSQVTLKESGPGILQPSQTLSLTCSFSGFSLRTSGMGVGWIRQPSGKGLEWLAHIWWDDDKRYNPALKSRLTISKDTSSNQVFLKIASVDTADTATYYCAQINPAWFAYWGQGTLVTVSAGGGGSGGGGSGGGGSGGGGSDTVLTQSPASLAVSLGQRATISCKASQSVDFDGDSFMNWYQQKPGQPPKLLIYTTSNLESGIPARFSASGSGTDFTLNIHPVEEEDTATYYCQQSNEDPYTFGGGTKLEIKGGGGSGGGGSGGGGSGGGGSDIQLTQSPSTLSASVGDRVTITCRASESLDNYGIRFLTWFQQKPGKAPKLLMYAASNQGSGVPSRFSGSGSGTEFTLTISSLQPDDFATYYCQQTKEVPWSFGQGTKVEVKGGGGSGGGGSGGGGSGGGGSEVQLVQSGAEVKKPGSSVKVSCKASGYTITDSNIHWVRQAPGQSLEWIGYIYPYNGGTDYNQKFKNRATLTVDNPTNTAYMELSSLRSEDTAFYYCVNGNPWLAYWGQGTLVTVSS
For B1, in the assay with CD47 [1], the “EC50 (concentration of half maximum lysis), redirected lysis of MOLM 13 cells by expanded PBMC effector cells, E:T 2:1, 4 h” value is 0.0015 nM. Further, the Kd with CD33 [2] came out at 30 nM; with CD47 [3], 21 nM; with CD33 [4], 30 nM.

B2: αCD33 mAB (antibody, human IgG1)
heavy: not shown
light: DIQLTQSPSTLSASVGDRVTITCRASESLDNYGIRFLTWFQQKPGKAPKLLMYAASNQGSGVPSRFSGSGSGTEFTLTISSLQPDDFATYYCQQTKEVPWSFGQGTKVEVKVAAPSVFIFPPSDEQLKSGTASVVCLLNNFYPREAKVQWKVDNALQSGNSQESVTEQDSKDSTYSLSSTLTLSKADYEKHKVYACEVTHQGLSSPVTKSFNRGEC
notes: Human IgG1/kappa (pFUSE-CHIg-hG1, pFUSE2-CLIg-hk); It was obtained from SIRPα-PreSc-antiCD33 by PreScission cleavage, so residues of the cleavage site may remain at the light chain N-terminus; also called antiCD33 mAb; anti-CD33 mAB (clone hP67.6)
For the molecule B2, the Kd with CD33 [5] and with CD33 [6] was 3 nM throughout.

B3: Fc-engineered variant of αCD33 mAB (antibody, human IgG1)
heavy: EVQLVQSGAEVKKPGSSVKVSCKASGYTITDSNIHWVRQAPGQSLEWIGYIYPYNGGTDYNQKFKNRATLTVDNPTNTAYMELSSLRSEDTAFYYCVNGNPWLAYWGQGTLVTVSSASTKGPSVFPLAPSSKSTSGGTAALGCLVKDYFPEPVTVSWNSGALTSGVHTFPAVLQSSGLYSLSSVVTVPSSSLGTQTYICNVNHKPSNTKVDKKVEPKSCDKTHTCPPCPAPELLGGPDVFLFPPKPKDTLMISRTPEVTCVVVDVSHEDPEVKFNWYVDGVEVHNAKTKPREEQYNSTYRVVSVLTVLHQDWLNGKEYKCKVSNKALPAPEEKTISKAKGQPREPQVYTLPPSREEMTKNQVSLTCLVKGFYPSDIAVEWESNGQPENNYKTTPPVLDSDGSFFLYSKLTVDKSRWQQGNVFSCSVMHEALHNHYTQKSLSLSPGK
light: B2 light
notes: Same as m7 with the Fc-engineered IgG1 constant region (S239D, I332E); also called Fc-engineered mAB
For the molecule B3, the Kd in the assay with CD33 [7] and with CD33 [6] was 2 nM throughout.
